Assays:
[1] = test system: Collagen Induced Arthritic (CIA) Model for Rheumatoid Arthritis (RA); experiment: Collagen induced arthritic (CIA) model for rheumatoid arthritis, hind limb/joint swelling; type: in vivo, rat
Procedure: (§1) Specifically, type II porcine collagen (Chondrex, Inc. catalog #20031), solubilized in 0.05 N of acetic acid in sterile water at a concentration of 2 mg/mL was emulsified with an equal volume of incomplete Freud's adjuvant (Chondrex, Inc. catalog #7002) using homogenization at 35,000 rpm (Omni International homogenizer TH, homogenizer probe #32750); 100 μL emulsion was injected subcutaneously at the base of the tails on both sides for initial administration (day 0, 200 μL of emulsion total), and then again, 7 days later, on the right side only, for booster administration (day 7, 100 μL of emulsion total). Hind limb swelling, usually evident by day 14, was assessed by caliper measurements of the rear ankle cross (side-to-side) and oblique (front-to-back) dimensions. The two measurements for each hind limb were multiplied together for assessment of swelling, and the percent change from baseline was computed. These measurements and lymphatic imaging were performed on days 0, 7, 11, 13, and 18, in the early stages of CIA before the onset of joint destruction. Four groups of animals were studied: (1) untreated (n=20), (2) treated with etanercept given by SC administration (n=20, 1 mg in 100 μL), (3) treated with etanercept given by ID administration (n=20, two administrations of 0.5 mg in 50 μL), and (4) treated with etanercept given via Sofusa™ (n=18, one administration of 1 mg in 100 μL delivered).

[2] = Biodistribution of radiolabeled etanercept to axillary and inguinal lymph nodes; type: in vivo; conditions: rat; Sofusa vs intravenous or subcutaneous; 12 and 36 hours; 1 mg
Procedure: In order to determine the amount etanercept delivered to the lymph nodes, a radiolabeled etanercept solution was administrated using the Sofusa™ drug delivery platform (1 mg etanercept in 100 μL), IV (1 mg etanercept in the tail vein in 100 μL), SC (1 mg etanercept in the dorsolateral side at the same site as the Sofusa™ application, 100 μL), and ID (1 mg total etanercept in two 50 μL injections). Animals were harvested at 12 and 36 hrs after administration, and the left/right axillary and inguinal lymph nodes were collected, weighed, and counted for radioactivity using a 2480 Wizard2 automatic gamma counter (PerkinElmer, Waltham, Mass., USA). The time-corrected radioactivity was then used to compute the μg/mL of tissue etanercept concentration from the specific radioactivity of the dosing solution with animals that were euthanized at 12 hrs (n=4, Sofusa™; n=6, IV; n=6, ID; and n=6, SC) and at 36 hrs (n=6, Sofusa™; n=6, IV; n=6, ID; and n=6, SC).
In order to validate the amount of etanercept delivered, the radioactivity was measured in the Sofusa™ device and tubing before and after the 1 hr infusion. Measurement was conducted using the dose calibrator. The amount of etanercept delivered as the difference in the time-corrected radioactivity before and after administration was determined.

[3] = Etanercept pharmacokinetics in porcine model by route of administration; type: in vivo, Yorkshire pig
[4] = Etanercept pharmacokinetics in rat serum by route of administration (ELISA); type: in vivo, Sprague Dawley rats
Procedure: Methods and procedures for some of these experiments have been adapted from Aldrich, et al., Arthritis Res. Ther., (2017), 19:116 (DOI 10.1186/s13075-017-1323-z; Open Access) which is incorporated by reference herein in its entirety for all purposes.
In order to characterize differences in etanercept delivery by the different routes of administration, normal rats were used to determine the PK profiles following a single dose of 1 mg etanercept in 100 μL delivered via Sofusa™ (n=6), conventional IV (in the tail vein, n=6), SC (dorsolateral injection at the same site as the Sofusa™ application, n=4), or ID injections (symmetrical dorsolateral injections 2×50 uL for a total dose of 1 mg etanercept, n=6). Other than the Sofusa™ delivery, all administration was conducted using a 31-gauge needle. At 2, 4, 8, 12, 24, and 36 h after administration, animals were anesthetized under isoflurane, and 200 μL of blood was drawn from the jugular vein. The etanercept concentration in serum was quantified using the Etanercept ELISA Kit (ABIN: 1540251) (Matriks Biotechnology Co., LTD., Ankara, Turkey). Optical density was measured at 450 nm using Thermo Scientific Multiskan EX (Thermo Fisher Scientific, Waltham, Mass., USA).

[5] = test system: Collagen Induced Arthritic (CIA) Model for Rheumatoid Arthritis (RA); experiment: Lymphatic pumping rate by NIRF imaging in CIA rats; type: in vivo, rat; conditions: for lymphatic pumping in the hind limbs vs untreated animals: CIA rat, days 13 and 18 post CIA induction
Procedure: as §1, with “delivered). Rats were anesthetized with isoflurane and shaved before imaging; 10 μL of 625 μM ICG was then injected ID with a 31-gauge needle/syringe (BD #328438, Fisher Scientific) at the base of the tail and on the dorsal side of the paw on both the right and left sides of the rats to perform NIRF imaging of the lymphatics. […] The integration time for fluorescence images was 200 ms; 300-900 images were collected per lateral side per rat for lymph propulsive frequency measurements. […]” for “delivered).”

[6] = Sofusa drug delivery platform vs subcutaneous
[7] = Table 1, IV, 1 mg etanercept single dose
[8] = Table 1, SC, 1 mg etanercept single dose
[9] = Table 2 summary, Sofusa drug delivery platform

With etanercept the “joint swelling over time” value ([1]; CIA RA rat model, Sofusa administration, 1 mg) was “decreased joint swelling over time”, the “increase in swelling with progression of disease (paired group comparisons, ANOVA)” value (“increase in swelling with progression” below) ([1]; CIA rat, ID administration) was “swelling was significantly increased” and the “increase in swelling with progression” value ([1]; CIA rat, SC administration) was “swelling was significantly increased”. For the same substance, the “increase in swelling with progression” value ([1]; CIA rat, SOFUSA administration) was “no statistically significant increase in swelling”, the “swelling of the hind limbs vs untreated animals” value ([1]; CIA rat, all treated groups (SC, ID, Sofusa), days 13 and 18) was “significant reduction in swelling” and the “hind limb swelling, SOFUSA compared to SC-treated animals” value ([1]; CIA rat, days 13 and 18) was “significantly reduced hind limb swelling”. The “active agent in the axillary and inguinal lymph nodes” value [2] was “significantly more of the active agent”, the “AUC48 and bioavailability, Sofusa vs intravenous” value [3] was “comparable to that for intravenous administration” and the “AUC48 and bioavailability, Sofusa vs subcutaneous” value [3] was “significantly higher than that for subcutaneous delivery”. For the same substance, the serum concentration ([3]; Sofusa at a dose much lower than subcutaneous administration) was “maintained a serum concentration at a therapeutically effective concentration”, the AUC0-48 ([3]; Table 4, IV) was 143 hrs-μg/mL and the BA ([3]; Table 4, IV) was 100%. It also gave a Cmax ([3]; Table 4, IV) of 6000 ng/mL, a Tmax ([3]; Table 4, IV) of 2 h and an AUC0-48 ([3]; Table 4, SC) of 89 hrs-μg/mL. It also gave a BA ([3]; Table 4, SC) of 62%, a Cmax ([3]; Table 4, SC) of 2000 ng/mL and a Tmax ([3]; Table 4, SC) of 24 h. For the same substance, the AUC0-48 ([3]; Table 4, Sofusa) was 132 hrs-μg/mL, the BA ([3]; Table 4, Sofusa) was 93% and the Cmax ([3]; Table 4, Sofusa) was 4400 ng/mL. For the same substance, the Tmax ([3]; Table 4, Sofusa) was 24 h, the “AUC48, Sofusa compared to SC” value [4, 6] was “almost double” and the “Tmax, Sofusa compared to SC” value [4, 6] was “significantly shorter”. For the same substance, the AUC0-48 [4, 7] was 2,800 hrs-μg/mL, the BA [4, 7] was 100% and the Cmax [4, 7] was 120000 ng/mL. It also gave a Tmax [4, 7] of 8 h, an AUC0-48 [4, 8] of 302 hrs-μg/mL and a BA [4, 8] of 10%. It also gave a Cmax [4, 8] of 15000 ng/mL, a Tmax [4, 8] of 36 h and an AUC0-48 ([4]; Table 1, Sofusa Study 1) of 545 hrs-μg/mL. It also gave a BA ([4]; Table 1, Sofusa Study 1) of 20%, a Cmax ([4]; Table 1, Sofusa Study 1) of 25000 ng/mL and a Tmax ([4]; Table 1, Sofusa Study 1) of 4 h. For the same substance, the AUC0-48 ([4]; Table 1, Sofusa Study 2) was 502 hrs-μg/mL, the BA ([4]; Table 1, Sofusa Study 2) was 18% and the Cmax ([4]; Table 1, Sofusa Study 2) was 22000 ng/mL. It also gave a Tmax ([4]; Table 1, Sofusa Study 2) of 2 h, an AUC0-48 ([4]; Table 1, Sofusa Study 3) of 538 hrs-μg/mL and a BA ([4]; Table 1, Sofusa Study 3) of 19%. It also gave a Cmax ([4]; Table 1, Sofusa Study 3) of 20000 ng/mL, a Tmax ([4]; Table 1, Sofusa Study 3) of 2 h and an AUC0-48 ([4]; Table 2 summary, SC) of 492 hrs-μg/mL. The BA ([4]; Table 2 summary, SC) was 17%, the Cmax ([4]; Table 2 summary, SC) was 15000 ng/mL and the Tmax ([4]; Table 2 summary, SC) was 36 h. For the same substance, the AUC0-48 [4, 9] was 800 hrs-μg/mL, the BA [4, 9] was 29% and the Cmax [4, 9] was 19000 ng/mL. The Tmax [4, 9] was 10 h, the AUC0-36 ([4]; Table 3, Intradermal) was 696 µg·h/mL and the BA ([4]; Table 3, Intradermal) was 25%. For the same substance, the Cmax ([4]; Table 3, Intradermal) was 21000 ng/mL, the Tmax ([4]; Table 3, Intradermal) was 12 h and the AUC0-36 ([4]; Table 3, Intravenous) was 2,815 μg-hour/ml. For the same substance, the BA ([4]; Table 3, Intravenous) was 100%, the Cmax ([4]; Table 3, Intravenous) was 120000 ng/mL and the Tmax ([4]; Table 3, Intravenous) was 2 h. The AUC0-36 ([4]; Table 3, Sofusa) was 1010 µg·h/mL, the BA ([4]; Table 3, Sofusa) was 36% and the Cmax ([4]; Table 3, Sofusa) was 23000 ng/mL. It also gave a Tmax ([4]; Table 3, Sofusa) of 12 h, an AUC0-36 ([4]; Table 3, Subcutaneous) of 302 µg·h/mL and a BA ([4]; Table 3, Subcutaneous) of 11%. For the same substance, the Cmax ([4]; Table 3, Subcutaneous) was 15000 ng/mL, the Tmax ([4]; Table 3, Subcutaneous) was 36 h and the lymphatic pumping rate ([5]; CIA RA rat, Sofusa compared to untreated, ID and SC groups) was “significantly increased”. For the same substance, the “lymphatic pumping in the hind limbs vs untreated animals” value ([5]; SC administration) was “statistically significant greater lymphatic pumping” and the “lymphatic pumping in the hind limbs vs untreated animals” value ([5]; SOFUSA administration) was “statistically significant greater lymphatic pumping”.

Source: US20210228853A1, “DRUG DELIVERY METHODS TARGETING THE LYMPHATIC SYSTEM” (Sorrento Therapeutics, Inc., priority 2018, published 2021)
